From patent US20040241163A1 (published 2004)

B1: secreted HCMV UL21.5 protein (UL21.5 activity in concentrated supernatant of wild-type HCMV-infected human fibroblasts) (other)
chain: APSQKSKRSVTVEQPSTSADGSNTTPSKNVTLSQGGSTTDGDEDYSGEYDVLITDGDGSEHQQPQKTDEHKENQAKENEKKIQ
modifications: highly glycosylated (sites not given)
notes: Not purified: tested as 300-fold concentrated serum-free culture medium of fibroblasts infected with wild-type AD169 virus; Secreted forms of 45 kDa and 25 kDa are cited; also called Wt supernatant; HCMV-infected cell supernatant

Experiments:
[1] = target: T1, interferon-γ (UniProt P01579 24-166); assay: competition of unlabeled cytokine with 125I-RANTES for cross-linking to UL21.5
T1 construct: also called IFN-γ
T1 sequence: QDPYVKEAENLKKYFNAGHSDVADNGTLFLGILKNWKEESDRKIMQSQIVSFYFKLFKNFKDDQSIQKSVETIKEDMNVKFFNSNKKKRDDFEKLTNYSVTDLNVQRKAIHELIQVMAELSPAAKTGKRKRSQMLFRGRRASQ

[2] = target: B1; assay: EDC cross-linking of 125I-chemokine to infected cell supernatant, SDS-PAGE autoradiogram
[3] = target: B1; assay: summary in the description of the Scatchard analysis of Example 4 (rounded value)
[4] = target: B1; assay: Scatchard analysis, 125I-RANTES (25-500 pM) with infected cell supernatant, PEG precipitation and filtration

Does B1 bind [1]?
Result: no binding

B2: MIP-1α (ligand)
chain: SLAADTPTACCFSYTSRQIPQNFIADYFETSSQCSKPGVIFLTKRSRQVCADPSEEWVQKYVSDLELSA
modifications: also: 125I-labeled in tracer form, position not given here
notes: also called MIP-1 alpha; 125I-labeled MIP-1α
Does B2 bind [2]?
Result: no binding (tested: 0.4 nM 125I-labeled chemokine)

B3: RANTES (regulated upon activation, normal T cell expressed and secreted) (ligand)
chain: SPYSSDTTPCCFAYIARPLPRAHIKEYFYTSGKCSNPAVVFVTRKNRQVCANPEKKWVREYINSLEMS
modifications: also: 125I-labeled in tracer form, position not given here
notes: also called 125I-labeled RANTES; 125I-RANTES
For B3, which Kd [3] is on record?
Its Kd is 0.15 nM.

What about the Kd [4] of the same binder?
Its Kd is 0.147 nM.
